From patent US7960140B2, “Avidin mutants” (Orion Diagnostica Oy, priority 2003, dated 2011)
Where two headings read alike, the source gives them in different places. Each block holds one molecule with its values, some of them ahead of it.

Legend:
[1] = SDS-PAGE-based thermal stability assay; type: physicochemical; details: for Tr / Tr + btn: Table 2; for Tr: absence of biotin, half of tetramer/pseudo-tetramer broken into monomers; for Tr + btn: presence of biotin; for SDS-PAGE stability assay Tr (−)biotin / SDS-PAGE stability assay Tr (+)biotin: Table 5; for SDS-PAGE stability assay Tr (−)biotin: transition midpoint of oligomeric disassembly, without biotin; for SDS-PAGE stability assay Tr (+)biotin: with biotin
Description: Thermal stability of the mutants was studied by using a SDS-PAGE-based method essentially as described in detail by Bayer et al. (Bayer, E. A. et al. Electrophoresis 17, 1319-1324 (1996)). Briefly, the protein sample in the absence or presence of biotin was diluted to a final concentration of 0.2 mg/mil in 50 mM Na-carbonate buffer, and the proteins were acetylated by adding acetyl NHS ester. Equal amount of SDS-PAGE sample buffer was added to each sample and the protein was incubated at different temperatures (between 25-100° C.) for 20 minutes. After that the samples were subjected to SDS-PAGE analysis and the gel was finally stained with Coomassie brilliant blue. Dissociation of the proteins into their subunits was observed from the gels and the transition temperatures, wherein half of the protein was (pseudo-)tetrameric and half monomeric were determined.

[2] = Reversibility of biotin binding on biotinylated IAsys cuvette surface; details: reversibility from biotin surface; biotin 423 μg/ml, one hour
Description: The reversibility of biotin binding was also measured using IAsys apparatus. In the reversibility assay, the sample proteins were allowed to bind to the biotinylated cuvette surface in PBS containing 1 M NaCl. After the equilibrium was reached, the cuvette was filled with PBS, 1 M NaCl containing biotin (423 μg/ml) and the dissociation of the proteins was monitored for one hour.

[3] = Dissociation assay with fluorescent biotin conjugate (ArcDia BF560); type: binding; details: for Release 1 h / kdiss / t1/4 (time point of 25% release): 23 ± 1° C.; for Release 1 h: 100-fold molar excess of free biotin; for kdiss: one-phase dissociation model; for t1/4 (time point of 25% release): determined directly from the measured data
Description: The biotin-binding properties of produced mutagenised dcAvds were analysed by method based on the quenching of biotin-coupled fluorescent probe ArcDia BF560 (ArcDia Ltd., Turku, Finland) due to binding to avidin (FIG. 4). PerkinElmer LS55 luminometer was used for measurements. […] The spectra of 50 nM biotin-Bf560 solution in 50 mM Na-phosphate containing 650 mM NaCl was measured (red). Chicken avidin (Belovo S. A., Bastogne, Belgium) was added to final subunit concentration of 83 nM and green spectra was obtained.
Briefly, 50 nM free biotin-Bf560 solution in 50 mM Na-phosphate containing 650 mM NaCl was measured using excitation at 560 nm (2.5 nm slit) and emission was collected at 578 nm (5 nm slit). Continuous stirring (setting low) was used throughout the analysis. After 100 sec measurement, the protein under study was added to final biotin-binding subunit concentration 50 nM and the measurement was continued for 500 sec. […]
A one-phase dissociation model was used to analyse the data, as described elsewhere (Hytönen et al., (2004) Biochem J, in press). The dissociation rate constant (kdiss) was determined by fitting the equation −kdisst=ln(B/Bo) to the data. Bo is the measured maximum binding (100%) determined as the difference between the fluorescence of the free dye and the fluorescence of the protein-dye complex, and B is the amount of complex measured as a function of time. The first 500 seconds were omitted from the data to abolish the effect of the fast initial phase characteristic of avidin-BF560-biotin interaction (FIG. 9). The fraction of fluorescent biotin released after one-hour was determined, as well as the times of half-maximal (t½) and quarter-maximal (t¼) release. For dual chain avidins with modified binding sites, it was hypothesized that 50% of the binding sites would behave like those of wt avidin (cpAvd5S4 binding site of dcAvd was not modified). The dissociation data measured for wt avidin divided by two was subtracted from the data measured for the modified dual chain avidins and the dissociation curve was fitted to the difference as above.

[4] = Heat-induced unfolding by DSC; type: physicochemical; details: for ΔTm: change in Tm upon addition of a three-fold molar excess of biotin; for DSC Tm (+)biotin: three-fold molar excess of biotin; for DSC Tm (−)biotin: without biotin
[5] = Microplate temperature stability assay; type: physicochemical; details: for activity after 32 min treatment: 80° C.
Description: FIG. 13. Temperature sensitivity determined by microplate assay. The avidin, dcAvd and scAvd sample is treated with the indicated temperature for certain time and the ability to bind biotinylated alkaline phosphatase was determined by coating the microplate with the sample.
The stability of the protein was studied by microplate assay as described in the article by Nordlund et al., (2003) J Biol Chem 278, 2479-83. In this assay, 50 mM Na—PO4 buffer containing 100 mM NaCl was used and the protein was heated to 80° C. or 90° C. for certain time. After that, the capacity to bind fluorescent biotin was measured as described in the article by Nordlund et al., (2003) J Biol Chem 278, 2479-83.

[6] = IAsys optical biosensor binding to immobilised 2-iminobiotin; details: for kass / kdiss: 2-iminobiotin surface, 50 mM borate pH 9.5, 1 M NaCl, 20° C.; for Kd: 2-iminobiotin
Description: Reversibility of biotin binding and affinity towards 2-iminobiotin were determined with an IAsys optical biosensor (Affinity Sensors, Cambridge, UK) (Table 1.) as described in detail by Marttila et. al. (Marttila, A. T. et al. FEBS Lett 441, 313-7 (1998)). Briefly, The 2-iminobiotin ligand was immobilized onto the carboxymethyldextran surface of a cuvette using N-hydroxysuccinimide activation. Binding of various concentrations of avidin or avidin mutants onto 2-iminobiotinylated surface was measured in a 50 mM borate buffer (pH 9.5) containing 1 M NaCl at 20° C. The 2-iminobiotin cuvettes were regenerated with 20 mM HCl. The kinetic rate constants for association (kass) and dissociation (kdiss) were calculated using the Fast Fit program package (Affinity Sensors). The obtained rate constants were used to calculate Kd(rel) according to Kd=kdiss/kass. Equilibrium data obtained from measurements with different protein concentrations were used to calculate the dissociation constant Kd(eq).

[7] = Free biotin-binding sites by quenching of intrinsic fluorescence on biotin titration; details: for Fluorescence quenching (350 nm): intrinsic fluorescence, emission 350 nm, due to binding of biotin; for Number of free biotin-binding sites per quaternary unit: protein 500±15 nM, titrated with biotin
Description: The number of free binding sites was determined based on the quenching of the intrinsic fluorescence of avidin due to binding of biotin (Laitinen et al., (2003) J. Biol. Chem. 278, 4010-4014). The protein sample under study diluted to 2 ml volume in 50 mM NaPO4 pH 7.0+650 mM NaCl was titrated with 1 μl additions of 70 μM biotin solution in the same buffer. The protein concentration in this assay was 500±15 nM, and the concentration was determined by comparing the emission intensity averaged over 340-350 nm (excitation at 280 nm) to avidin standard sample. The protein sample was continuously mixed by magnetic stirrer.
Intensity from each biotin concentration was averaged over eight second measurement. The end-point of the quenching was determined by fitting a line to obtained data and determining the total quenching by averaging the last three measured intensities (FIG. 12, Table 6).

[8] = Colorimetric HABA-assay for number of free biotin-binding sites; details: average from two independent experiments
Description: The colorimetric HABA-assay was performed essentially as described by Green (Green, N. Methods in Enzymology 18, 418-424 (1970)). Dual-chain avidin (dcAvd) in 100 mM phosphate buffer (pH 7) was saturated with excess HABA and the absorbance was measured at 500 nm with a Beckman DU640 spectrophotometer. After that, excess biotin, which replaces HABA from the binding site, was added to the sample and the absorbance at 500 nm was measured again. The observed change in the absorbance was used to calculate the number of free binding sites in dcAvd.
The number of biotin-binding sites per dual-chain avidin pseudo-tetramer (is actually a dimer with four binding sites) was determined in a colorimetric HABA-assay according to Green (Green, N. Methods in Enzymology 18, 418-424 (1970)). The average from two independent experiments gave an approximation of 3.3 free biotin-binding sites per dimeric molecule (pseudo-tetramer).

[9] = calculated from the rate constants (kdiss/kass), read-out: Kd(rel)
[10] = determined experimentally from the binding curves, read-out: Kd(eq)

reversibility [2]: 9%
kass [6]: (5.5 ± 0.5) × 10^5 M^−1s^−1
kdiss [6]: (1.9 ± 1.4) × 10^−3 s^−1
Kd [6, 9]: 0.034 µM
Kd [6, 10]: 0.022 µM
quenching measured for whole emission spectrum (290-500 nm) due to biotin binding [7]: 44.9%
Fluorescence quenching (350 nm) [7]: 47.7%
Number of free biotin-binding sites per quaternary unit [7]: 3.34
Number of free biotin-binding sites per quaternary unit ([7]; listed as avidin): 3.3
Molecule: Avidin: wild-type chicken avidin, homotetramer (SEQ ID NO:1) [reference compound]
Tr [1]: 60 °C
Tr + btn [1]: 95 °C
SDS-PAGE stability assay Tr (−)biotin [1]: 60 °C
SDS-PAGE stability assay Tr (+)biotin [1]: 95 °C
Release 1 h [3]: 14.1%
kdiss [3]: 2.3e-05 s⁻¹
Dissociation of fluorescent biotin Release 1 h ([3]; 25° C.): 14.1%
Dissociation of fluorescent biotin kdiss ([3]; 25° C.): 2.3e-05 s⁻¹
Dissociation of fluorescent biotin Release 1 h ([3]; 50° C.): 71.5%
Dissociation of fluorescent biotin kdiss ([3]; 50° C.): 0.00024 s⁻¹
ΔTm [4]: 33.5 °C
DSC Tm (+)biotin [4]: 117.0 ± 0.7 °C
DSC Tm (−)biotin [4]: 83.5 ± 0.1 °C
activity after 32 min treatment ([5]; 32 min): 82%
activity present after 32 min treatment ([5]; 90° C., 32 min): over 50%
heat inactivation ([5]; 100° C.): significantly slower response to the heat treatment

Molecule: Avd(Y33H): avidin with four identically mutagenised (Y33H) subunits (Marttila et al. 2003) [reference compound]
SDS-PAGE stability assay Tr (+)biotin [1]: 75 °C
dissociation of biotin-coupled fluorescent probe with excess unlabeled biotin ([3]; 5 μM free biotin, 3600 sec, 23±0.5° C.): rapid and complete dissociation
Release 1 h [3]: 99.2%
t1/4 (time point of 25% release) [3]: 149 s
kdiss [3]: 0.0011 s⁻¹
ΔTm [4]: 33.3 °C
DSC Tm (+)biotin [4]: 106.3 °C
DSC Tm (−)biotin [4]: 73.0 °C

Molecule: Avd(S16A): avidin mutant S16A in all four subunits
SDS-PAGE stability assay Tr (−)biotin [1]: 55 °C
SDS-PAGE stability assay Tr (+)biotin [1]: 80 °C
Release 1 h [3]: 74.5%
t1/4 (time point of 25% release) [3]: 621 s
kdiss [3]: 0.00036 s⁻¹
ΔTm [4]: 30.3 °C
DSC Tm (+)biotin [4]: 114.6 ± 0.2 °C
DSC Tm (−)biotin [4]: 84.3 ± 0.3 °C

free biotin-binding sites per dimeric molecule (pseudo-tetramer) [8]: ~3.3
reversibility [2]: 8%
kass [6]: (9.8 ± 1.3) × 10^4 M^−1s^−1
kdiss [6]: (1.1 ± 0.5) × 10^−3 s^−1
Kd [6, 9]: 0.11 µM
Kd [6, 10]: 0.041 µM
quenching measured for whole emission spectrum (290-500 nm) due to biotin binding [7]: 45.1%
Fluorescence quenching (350 nm) [7]: 51.4%
Number of free biotin-binding sites per quaternary unit [7]: 3.86
B1: dcAvd: dual-chain avidin, fusion of cpAvd5→4 and cpAvd6→5 via SGG spacer (SEQ ID NO:2) (protein, listed as Gallus gallus)
chain: MVHATSPLLLLLLLSLALVAPGLSARKRTQPTFGFTVNWKFSESTTVFTGQCFIDRNGKEVLKTMWLLRSSVNDIGDDWKATRVGINIFTRLRTQKEGGSGGSARKCSLTGKWTNDLGSNMTIGAVNSRGEFTGTYITAVTATSNEIKESPLHGTQNTINKSGGSTTVFTGQCFIDRNGKEVLKTMWLLRSSVNDIGDDWKATRVGINIFTRLRTQKEGGSGGSARKCSLTGKWTNDLGSNMTIGAVNSRGEFTGTYITAVTATSNEIKESPLHGTQNTINKRTQPTFGFTVNWKFSE
Tr [1]: 40 °C
Tr + btn [1]: 75 °C
SDS-PAGE stability assay Tr (−)biotin [1]: 40 °C
SDS-PAGE stability assay Tr (+)biotin [1]: 75 °C
Release 1 h [3]: 10.1%
kdiss [3]: 1.4e-05 s⁻¹
Dissociation of fluorescent biotin Release 1 h ([3]; 25° C.): 10.1%
Dissociation of fluorescent biotin kdiss ([3]; 25° C.): 1.5e-05 s⁻¹
Dissociation of fluorescent biotin Release 1 h ([3]; 50° C.): 67.4%
Dissociation of fluorescent biotin kdiss ([3]; 50° C.): 0.00027 s⁻¹
ΔTm [4]: 35.7 °C
DSC Tm (+)biotin [4]: 115.9 °C
DSC Tm (−)biotin [4]: 80.2 ± 0.0 °C
activity after 32 min treatment ([5]; 32 min): 59%
heat inactivation ([5]; 90° C.): fast denaturation
heat inactivation ([5]; 100° C.): fast inactivation
